Data as given in patent publication US20110287963A1.

What was measured:
[1] = biological target: GCN4-PP, double proline mutant of the GCN4 leucine zipper, fused to the α fragment of β-lactamase (E. coli (plasmid pBR322)) (UniProt P03069); experiment: cell-based or functional assay
[2] = biological target: GCN4 leucine zipper (wild-type) fused to the α fragment of β-lactamase (E. coli (plasmid pBR322)) (UniProt P03069); experiment: cell-based or functional assay

Substance: scFv-GCN4 fused to the ω fragment of β-lactamase (pDMB-P1-ωBLA construct)
- MBC (minimum bacteriocidal concentration) on ampicillin, fold over the α-Jun negative control [1]: 16 fold
- MBC (minimum bacteriocidal concentration) on ampicillin, fold over the α-Jun negative control [2]: 2 fold
